Test results: patent US20220372112A1 (KEYMED BIOSCIENCES, published 2022)

T1: human Claudin 18.2 (human, UniProt P56856-2 1-261)
T1 construct: whole, on cells
T1 sequence (looked up): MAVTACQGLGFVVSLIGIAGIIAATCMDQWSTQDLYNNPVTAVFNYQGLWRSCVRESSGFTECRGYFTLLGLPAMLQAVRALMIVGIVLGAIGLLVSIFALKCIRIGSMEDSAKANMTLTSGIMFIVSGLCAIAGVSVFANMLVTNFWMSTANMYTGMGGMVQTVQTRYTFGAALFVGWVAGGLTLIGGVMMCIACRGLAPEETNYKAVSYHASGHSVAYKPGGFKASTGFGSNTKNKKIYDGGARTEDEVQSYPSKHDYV


What follows are binders tested against T1, human Claudin 18.2 (assay: flow cytometry (iQue) on cells, antibody from 100 nM in 5-fold steps; cell line not named in Example 5).
Protocol: The cells at logarithmic growth phase were taken, blocked with 3% BSA for 30 minutes, plated at 5×10⁴ cells/100 μL into a U-shaped 96-well plate, centrifuged at 1100 rpm for 3 minutes, the supernatant was discarded, the cells were gently patted and loosed, 50 μL of antibody diluted according to the series was added to each well (antibody concentration starts from 100 nM, 5 times dilution in 8 series), incubated at 4° C. for 1 hour. After the incubation, 140 μL of 0.5% BSA was added to each well to wash 3 times, AF 647 APC anti-human secondary antibody was added with 30 μL/well and incubated at 4° C. for 40 minutes. After the incubation, 140 μL of 0.5% BSA was added to each well to wash 3 times, and finally resuspended each well with 50 μL PBS for iQue (Intellicyt, USA) detection (shown in Table 2).

Binder | EC50 [nM]
h15F9.v25 (antibody, V domains shown, Humanized; also called 15F9VLv2 + 15F9VHv5) VH: QIQLVQSGSELKKPGASVKVSCKASGYTFTNYGINWVRQAPGQGLEWMGWINPNTGETTYAEGFTGRFVLSWDTSVSTAYLQISSLKAEDTAVYFCARLYYGNRFDSWGQGTLVTVSS VL: DIVMTQSPDSLAVSLGERATINCKSSQSLLNSGNQRNYLAWYQQKPGQPPKLLIYWASTRESGVPDRFSGSGSGTDFTLTISSLQAEDVAVYYCQQAYYYPLTFGGGTKVEIK | 0.773
h18A9.v12 (antibody, V domains shown, Humanized; also called 18A9VLv1 + 18A9VHv2) VH: QVQLVQSGAEVKKPGSSVKVSCKPSGYTFTNYLIDWVRQAPGQGLEWMGGINPGSGDTVYNEKFQGRVTLTADESTSTAYMELSSLRSEDTAVYFCARRVRGNSFDSWGQGTLVTVSS VL: DIVMTQSPDSLAVSLGERATINCKSSQSLLNSGNQKNYLTWYQQKPGQPPKLLIYWASTRESGVPDRFSGSGSGKDFTLTISSLQAEDVAVYYCQNNYFYPLTFGGGTKVEIK | 0.913
h15F9.v16 (antibody, V domains shown, Humanized; also called 15F9VLv1 + 15F9VHv6) VH: QIQLVQSGSELKKPGASVKVSCKASGYTFTNYGINWVRQAPGQGLEWMGWINPGTGETTYAEGFTGRFVLSWDTSVSTAYLQISSLKAEDTAVYFCARLYYGNRFDSWGQGTLVTVSS VL: DIVMTQSPDSLAVSLGERATINCKSSQSLLNSGNQRNYLTWYQQKPGQPPKLLIYWASTRESGVPDRFSGSGSGTDFTLTISSLQAEDVAVYYCQNAYYYPLTFGGGTKVEIK | 0.705
h15F9.v25r1 (antibody, V domains shown, Humanized; also called 15F9VLv2 + 15F9VHv5r1) VH: QVQLVQSGSELKKPGASVKVSCKASGYTFTNYGINWVRQAPGQGLEWMGWINPNTGETTYAEEFKGRFVFSLDTSVSTAYLQISSLKAEDTAVYFCARLYYGNRFDSWGQGTLVTVSS VL: DIVMTQSPDSLAVSLGERATINCKSSQSLLNSGNQRNYLAWYQQKPGQPPKLLIYWASTRESGVPDRFSGSGSGTDFTLTISSLQAEDVAVYYCQQAYYYPLTFGGGTKVEIK | 1.72
h15F9.v35r1 (antibody, V domains shown, Humanized; also called 15F9VLv3 + 15F9VHv5r1) VH: QVQLVQSGSELKKPGASVKVSCKASGYTFTNYGINWVRQAPGQGLEWMGWINPNTGETTYAEEFKGRFVFSLDTSVSTAYLQISSLKAEDTAVYFCARLYYGNRFDSWGQGTLVTVSS VL: not shown | 1.2
h15F9.v15 (antibody, V domains shown, Humanized; also called 15F9VLv1 + 15F9VHv5) VH: QIQLVQSGSELKKPGASVKVSCKASGYTFTNYGINWVRQAPGQGLEWMGWINPNTGETTYAEGFTGRFVLSWDTSVSTAYLQISSLKAEDTAVYFCARLYYGNRFDSWGQGTLVTVSS VL: DIVMTQSPDSLAVSLGERATINCKSSQSLLNSGNQRNYLTWYQQKPGQPPKLLIYWASTRESGVPDRFSGSGSGTDFTLTISSLQAEDVAVYYCQNAYYYPLTFGGGTKVEIK | 1.67
h15F9.v25r2 (antibody, V domains shown, Humanized; also called 15F9VLv2 + 15F9VHv5r2) VH: EVQLVQSGSELKKPGASVKVSCKASGYTFTNYGINWVRQAPGQGLEWMGWINPYTGETTYAEEFKGRFVFSLDTSVSTAYLQISSLKAEDTAVYFCARLYYGNRFDSWGQGTLVTVSS VL: DIVMTQSPDSLAVSLGERATINCKSSQSLLNSGNQRNYLAWYQQKPGQPPKLLIYWASTRESGVPDRFSGSGSGTDFTLTISSLQAEDVAVYYCQQAYYYPLTFGGGTKVEIK | 1.61
h15F9.v15r1 (antibody, V domains shown, Humanized; also called 15F9VLv1 + 15F9VHv5r1) VH: QVQLVQSGSELKKPGASVKVSCKASGYTFTNYGINWVRQAPGQGLEWMGWINPNTGETTYAEEFKGRFVFSLDTSVSTAYLQISSLKAEDTAVYFCARLYYGNRFDSWGQGTLVTVSS VL: DIVMTQSPDSLAVSLGERATINCKSSQSLLNSGNQRNYLTWYQQKPGQPPKLLIYWASTRESGVPDRFSGSGSGTDFTLTISSLQAEDVAVYYCQNAYYYPLTFGGGTKVEIK | 2.53
h15F9.v15r2 (antibody, V domains shown, Humanized; also called 15F9VLv1 + 15F9VHv5r2) VH: EVQLVQSGSELKKPGASVKVSCKASGYTFTNYGINWVRQAPGQGLEWMGWINPYTGETTYAEEFKGRFVFSLDTSVSTAYLQISSLKAEDTAVYFCARLYYGNRFDSWGQGTLVTVSS VL: DIVMTQSPDSLAVSLGERATINCKSSQSLLNSGNQRNYLTWYQQKPGQPPKLLIYWASTRESGVPDRFSGSGSGTDFTLTISSLQAEDVAVYYCQNAYYYPLTFGGGTKVEIK | 1.65
h15F9.v36 (antibody, V domains shown, Humanized; also called 15F9VLv3 + 15F9VHv6) VH: QIQLVQSGSELKKPGASVKVSCKASGYTFTNYGINWVRQAPGQGLEWMGWINPGTGETTYAEGFTGRFVLSWDTSVSTAYLQISSLKAEDTAVYFCARLYYGNRFDSWGQGTLVTVSS VL: not shown | 0.786
h15F9.v35 (antibody, V domains shown, Humanized; also called 15F9VLv3 + 15F9VHv5) VH: QIQLVQSGSELKKPGASVKVSCKASGYTFTNYGINWVRQAPGQGLEWMGWINPNTGETTYAEGFTGRFVLSWDTSVSTAYLQISSLKAEDTAVYFCARLYYGNRFDSWGQGTLVTVSS VL: not shown | 0.951
h15F9.v26 (antibody, V domains shown, Humanized; also called 15F9VLv2 + 15F9VHv6) VH: QIQLVQSGSELKKPGASVKVSCKASGYTFTNYGINWVRQAPGQGLEWMGWINPGTGETTYAEGFTGRFVLSWDTSVSTAYLQISSLKAEDTAVYFCARLYYGNRFDSWGQGTLVTVSS VL: DIVMTQSPDSLAVSLGERATINCKSSQSLLNSGNQRNYLAWYQQKPGQPPKLLIYWASTRESGVPDRFSGSGSGTDFTLTISSLQAEDVAVYYCQQAYYYPLTFGGGTKVEIK | 1.02
h15F9.v35r2 (antibody, V domains shown, Humanized; also called 15F9VLv3 + 15F9VHv5r2) VH: EVQLVQSGSELKKPGASVKVSCKASGYTFTNYGINWVRQAPGQGLEWMGWINPYTGETTYAEEFKGRFVFSLDTSVSTAYLQISSLKAEDTAVYFCARLYYGNRFDSWGQGTLVTVSS VL: not shown | 0.879

The next lines start with the values.

EC50 [nM] | Binder
0.822 | h18A9.v22 (antibody, V domains shown, Humanized; also called 18A9VLv2 + 18A9VHv2) VH: QVQLVQSGAEVKKPGSSVKVSCKPSGYTFTNYLIDWVRQAPGQGLEWMGGINPGSGDTVYNEKFQGRVTLTADESTSTAYMELSSLRSEDTAVYFCARRVRGNSFDSWGQGTLVTVSS VL: not shown
0.548 | h18A9.v14 (antibody, V domains shown, Humanized; also called 18A9VLv1 + 18A9VHv4) VH: QVQLVQSGAEVKKPGSSVKVSCKASGYTFTNYLIDWVRQAPGQGLEWMGGINPGSGDTVYNEKFQGRVTLTADKSSMTAYMELSSLRSEDTAVYFCARRVRGNSFDSWGQGTLVTVSS VL: DIVMTQSPDSLAVSLGERATINCKSSQSLLNSGNQKNYLTWYQQKPGQPPKLLIYWASTRESGVPDRFSGSGSGKDFTLTISSLQAEDVAVYYCQNNYFYPLTFGGGTKVEIK
0.799 | h18A9.v16 (antibody, V domains shown, Humanized; also called 18A9VLv1 + 18A9VHv6) VH: QVQLVQSGAEVKKPGASVKVSCKPSGYAFTNYLIDWVRQAPGQGLEWMGGINPGSGDTVYNEKFQGRVTLTADKSSSTAYMELSSLRSEDTAVYFCARRVRGNSFDSWGQGTLVTVSS VL: DIVMTQSPDSLAVSLGERATINCKSSQSLLNSGNQKNYLTWYQQKPGQPPKLLIYWASTRESGVPDRFSGSGSGKDFTLTISSLQAEDVAVYYCQNNYFYPLTFGGGTKVEIK
1.41 | h18A9.v15 (antibody, V domains shown, Humanized; also called 18A9VLv1 + 18A9VHv5) VH: QVQLVQSGAEVKKPGSSVKVSCKPSGYTFTNYLIDWVRQAPGQGLEWMGGINPGSGDTVYNEKFQGRVTITADESTSTAYMELSSLRSEDTAVYFCARRVRGNSFDSWGQGTLVTVSS VL: DIVMTQSPDSLAVSLGERATINCKSSQSLLNSGNQKNYLTWYQQKPGQPPKLLIYWASTRESGVPDRFSGSGSGKDFTLTISSLQAEDVAVYYCQNNYFYPLTFGGGTKVEIK
0.645 | h18A9.v11 (antibody, V domains shown, Humanized; also called 18A9VLv1 + 18A9VHv1) VH: QVQLVQSGAEVKKPGSSVKVSCKPSGYAFTNYLIDWVRQAPGQGLEWMGGINPGSGDTVYNEKFQGRVTLTADKSSMTAYMELSSLRSEDTAVYFCARRVRGNSFDSWGQGTLVTVSS VL: DIVMTQSPDSLAVSLGERATINCKSSQSLLNSGNQKNYLTWYQQKPGQPPKLLIYWASTRESGVPDRFSGSGSGKDFTLTISSLQAEDVAVYYCQNNYFYPLTFGGGTKVEIK
1.17 | h18A9.v23 (antibody, V domains shown, Humanized; also called 18A9VLv2 + 18A9VHv3) VH: QVQLVQSGAEVKKPGSSVKVSCKPSGYTFTNYLIDWVRQAPGQGLEWMGGINPGSGDTVYNEKFQGRVTLTADKSSMTAYMELSSLRSEDTAVYYCARRVRGNSFDSWGQGTLVTVSS VL: not shown
1.43 | h18A9.v17 (antibody, V domains shown, Humanized; also called 18A9VLv1 + 18A9VHv7) VH: QVQLVQSGAEVKKPGASVKVSCKPSGYTFTNYLIDWVRQAPGQGLEWMGGINPGSGDTVYNEKFQGRVTLTADTSTSTVYMELSSLRSEDTAVYFCARRVRGNSFDSWGQGTLVTVSS VL: DIVMTQSPDSLAVSLGERATINCKSSQSLLNSGNQKNYLTWYQQKPGQPPKLLIYWASTRESGVPDRFSGSGSGKDFTLTISSLQAEDVAVYYCQNNYFYPLTFGGGTKVEIK
1.03 | h18A9.v21 (antibody, V domains shown, Humanized; also called 18A9VLv2 + 18A9VHv1) VH: QVQLVQSGAEVKKPGSSVKVSCKPSGYAFTNYLIDWVRQAPGQGLEWMGGINPGSGDTVYNEKFQGRVTLTADKSSMTAYMELSSLRSEDTAVYFCARRVRGNSFDSWGQGTLVTVSS VL: not shown
2.06 | h18A9.v24 (antibody, V domains shown, Humanized; also called 18A9VLv2 + 18A9VHv4) VH: QVQLVQSGAEVKKPGSSVKVSCKASGYTFTNYLIDWVRQAPGQGLEWMGGINPGSGDTVYNEKFQGRVTLTADKSSMTAYMELSSLRSEDTAVYFCARRVRGNSFDSWGQGTLVTVSS VL: not shown
0.761 | h18A9.v13 (antibody, V domains shown, Humanized; also called 18A9VLv1 + 18A9VHv3) VH: QVQLVQSGAEVKKPGSSVKVSCKPSGYTFTNYLIDWVRQAPGQGLEWMGGINPGSGDTVYNEKFQGRVTLTADKSSMTAYMELSSLRSEDTAVYYCARRVRGNSFDSWGQGTLVTVSS VL: DIVMTQSPDSLAVSLGERATINCKSSQSLLNSGNQKNYLTWYQQKPGQPPKLLIYWASTRESGVPDRFSGSGSGKDFTLTISSLQAEDVAVYYCQNNYFYPLTFGGGTKVEIK
